This is an account of results in publication PMC7728438.

The target of assay [1] is PC-2 F604P (human polycystin-2 with the gain of function mutation F604P) (human) (UniProt Q13563).
The target of assay [2] is native heteromeric PC-1/PC-2 polycystin complex of mIMCD-3 primary cilia (mouse (endogenous in mIMCD-3)) (UniProt O08852).
Assay [3] addresses PC-1^deltaNT/PC-2_(F604P) heteromer (UniProt P98161).
For assay [4], the target named is native heteromeric PC-1/PC-2 polycystin complex of mIMCD-3 primary cilia (mouse (endogenous in mIMCD-3)) (UniProt O08852). This is another data set of the same source.

Sequence of PC-1 N-terminal fragment NTF^263-535 (P98161 263-535): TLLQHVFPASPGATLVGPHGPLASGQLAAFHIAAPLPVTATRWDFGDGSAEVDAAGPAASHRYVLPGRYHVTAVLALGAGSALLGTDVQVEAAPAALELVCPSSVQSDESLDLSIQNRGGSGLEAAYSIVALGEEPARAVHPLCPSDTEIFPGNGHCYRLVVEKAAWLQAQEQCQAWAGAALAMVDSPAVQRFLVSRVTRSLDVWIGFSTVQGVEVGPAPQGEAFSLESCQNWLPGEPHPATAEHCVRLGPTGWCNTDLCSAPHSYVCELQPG
Sequence of PC-2 F604P (human polycystin-2 with the gain of function mutation F604P) (human) (Q13563 whole entry F604P): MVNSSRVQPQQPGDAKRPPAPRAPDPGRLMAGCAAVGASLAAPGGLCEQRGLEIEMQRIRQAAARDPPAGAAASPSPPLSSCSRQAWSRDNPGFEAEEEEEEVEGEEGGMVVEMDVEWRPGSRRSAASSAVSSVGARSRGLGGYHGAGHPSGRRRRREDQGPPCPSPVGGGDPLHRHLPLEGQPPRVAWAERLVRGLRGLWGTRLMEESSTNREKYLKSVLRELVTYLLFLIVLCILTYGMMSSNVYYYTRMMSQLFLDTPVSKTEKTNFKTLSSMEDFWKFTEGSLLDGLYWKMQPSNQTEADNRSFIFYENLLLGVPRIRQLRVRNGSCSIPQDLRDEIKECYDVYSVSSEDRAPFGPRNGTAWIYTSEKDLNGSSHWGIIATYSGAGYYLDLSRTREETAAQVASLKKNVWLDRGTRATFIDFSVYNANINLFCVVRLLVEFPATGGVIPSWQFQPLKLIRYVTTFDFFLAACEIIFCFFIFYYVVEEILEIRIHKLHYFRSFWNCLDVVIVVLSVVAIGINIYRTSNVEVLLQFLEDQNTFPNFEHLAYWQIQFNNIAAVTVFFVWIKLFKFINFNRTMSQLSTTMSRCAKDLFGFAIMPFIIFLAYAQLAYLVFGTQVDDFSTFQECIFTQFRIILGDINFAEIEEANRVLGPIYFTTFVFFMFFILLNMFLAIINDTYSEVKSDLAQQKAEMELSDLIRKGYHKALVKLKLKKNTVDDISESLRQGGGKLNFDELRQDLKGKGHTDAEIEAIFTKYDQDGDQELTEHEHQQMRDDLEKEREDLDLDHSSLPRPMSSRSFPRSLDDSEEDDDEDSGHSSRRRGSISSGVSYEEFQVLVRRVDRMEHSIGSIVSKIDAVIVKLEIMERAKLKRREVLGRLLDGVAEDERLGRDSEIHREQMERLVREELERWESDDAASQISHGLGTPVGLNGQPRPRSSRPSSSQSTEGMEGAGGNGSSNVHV
Sequence of PC-1^deltaNT/PC-2_(F604P) heteromer (P98161 other isoform, or with tags, fused parts or gaps F604P | F604P, chain 1 of 2): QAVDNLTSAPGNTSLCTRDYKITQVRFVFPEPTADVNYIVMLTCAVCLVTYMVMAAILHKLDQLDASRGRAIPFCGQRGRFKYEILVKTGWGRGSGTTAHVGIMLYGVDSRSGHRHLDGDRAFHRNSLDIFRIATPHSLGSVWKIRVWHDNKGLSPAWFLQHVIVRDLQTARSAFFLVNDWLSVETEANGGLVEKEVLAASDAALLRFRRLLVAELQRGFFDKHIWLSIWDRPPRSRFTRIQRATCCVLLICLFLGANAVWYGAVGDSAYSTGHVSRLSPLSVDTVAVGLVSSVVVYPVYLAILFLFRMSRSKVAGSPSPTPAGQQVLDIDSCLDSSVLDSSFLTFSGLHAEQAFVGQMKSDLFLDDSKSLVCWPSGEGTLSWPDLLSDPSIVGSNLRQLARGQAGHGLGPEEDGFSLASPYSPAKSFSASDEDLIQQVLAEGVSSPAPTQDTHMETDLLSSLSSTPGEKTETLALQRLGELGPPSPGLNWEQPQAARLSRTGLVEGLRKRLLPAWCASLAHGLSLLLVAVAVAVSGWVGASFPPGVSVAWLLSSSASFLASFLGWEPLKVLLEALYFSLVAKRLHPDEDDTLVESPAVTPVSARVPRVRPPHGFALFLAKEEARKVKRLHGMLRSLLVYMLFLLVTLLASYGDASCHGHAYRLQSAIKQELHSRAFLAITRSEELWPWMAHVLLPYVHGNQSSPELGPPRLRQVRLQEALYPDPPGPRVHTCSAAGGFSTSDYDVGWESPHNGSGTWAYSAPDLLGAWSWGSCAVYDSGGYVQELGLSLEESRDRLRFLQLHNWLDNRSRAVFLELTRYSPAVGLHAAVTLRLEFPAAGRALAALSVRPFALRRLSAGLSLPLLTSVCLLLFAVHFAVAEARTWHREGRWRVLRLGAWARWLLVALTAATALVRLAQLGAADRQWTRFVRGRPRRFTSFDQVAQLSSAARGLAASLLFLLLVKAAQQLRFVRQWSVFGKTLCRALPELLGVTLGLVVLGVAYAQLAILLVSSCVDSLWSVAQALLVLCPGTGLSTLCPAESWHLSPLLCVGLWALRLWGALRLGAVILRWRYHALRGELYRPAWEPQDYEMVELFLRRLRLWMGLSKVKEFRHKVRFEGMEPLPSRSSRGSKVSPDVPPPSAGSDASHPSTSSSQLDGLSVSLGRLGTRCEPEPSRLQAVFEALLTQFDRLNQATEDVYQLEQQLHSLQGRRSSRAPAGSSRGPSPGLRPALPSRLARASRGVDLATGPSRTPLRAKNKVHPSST
Sequence of PC-1^deltaNT/PC-2_(F604P) heteromer (Q13563 whole entry F604P, chain 2 of 2, further chain): as the sequence (Q13563 whole entry F604P) above
Sequence of PC-1 N-terminal fragment NTF^24-852 (P98161 24-852): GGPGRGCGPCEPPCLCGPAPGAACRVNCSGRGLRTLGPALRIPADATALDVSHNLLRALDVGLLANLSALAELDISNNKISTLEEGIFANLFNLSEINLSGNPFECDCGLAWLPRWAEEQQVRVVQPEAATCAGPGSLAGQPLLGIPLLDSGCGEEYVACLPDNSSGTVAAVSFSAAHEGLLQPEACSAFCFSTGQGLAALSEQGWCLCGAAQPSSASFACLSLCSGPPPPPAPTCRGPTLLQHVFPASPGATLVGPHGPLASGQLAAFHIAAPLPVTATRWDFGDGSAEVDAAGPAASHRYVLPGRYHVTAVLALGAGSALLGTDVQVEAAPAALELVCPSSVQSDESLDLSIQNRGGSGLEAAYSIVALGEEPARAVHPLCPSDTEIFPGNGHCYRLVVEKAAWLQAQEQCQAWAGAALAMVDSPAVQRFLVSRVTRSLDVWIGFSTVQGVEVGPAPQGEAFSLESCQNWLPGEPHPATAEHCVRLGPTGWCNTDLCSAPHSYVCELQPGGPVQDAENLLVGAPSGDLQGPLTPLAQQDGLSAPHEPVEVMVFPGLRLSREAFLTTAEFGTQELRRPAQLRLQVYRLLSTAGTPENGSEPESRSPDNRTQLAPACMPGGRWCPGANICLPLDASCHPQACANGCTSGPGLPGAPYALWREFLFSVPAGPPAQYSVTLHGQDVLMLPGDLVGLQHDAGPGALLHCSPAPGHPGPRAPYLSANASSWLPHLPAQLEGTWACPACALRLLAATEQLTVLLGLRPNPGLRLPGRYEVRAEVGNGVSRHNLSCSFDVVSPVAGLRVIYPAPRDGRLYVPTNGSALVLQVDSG

Turning to “sPC-1 (human polycystin-1 with Ig kappa-chain secretion sequence and HA tag in place of its own signal peptide) (from UniProt P98161 24-4303) (receptor)”, in assay [1], the relative open probability at -100 mV, whole-cell patch clamp, HEK293 cells came out at 0.1; the whole-cell patch clamp current density at +100 mV, HEK293 cells co-expressing sPC-1 and PC-2 F604P (PC-2 F604P alone gave negligible currents) was 123 pA/pF.

Consider “PC-1 N-terminal fragment NTF^263-535 (from UniProt P98161 263-535) (domain or fragment)”, for which the probability of single channel openings at negative membrane potentials, excised inside-out patches of mIMCD-3 primary cilia, 0.7 ug/mL (~50 nM) fragment in the pipette in assay [2] stood at 5 fold. For the same substance, in assay [3], the outward whole-cell currents of HEK293 cells expressing PC-1deltaNT/PC-2 F604P with the fragment in the bath solution (boiled fragment inactive) worked out at 61.4 pA/pF. Moreover, the spike-like elevations of ciliary Ca2+ (Arl13b-mScarlet-GCaMP6s, TIRF microscopy) in mIMCD-3 cells after the fragment; none in untreated cells, with boiled fragment or in PC-2 knockout cells in assay [4] was > 0.35 ΔF/F.

“PC-1 N-terminal fragment NTF^24-852 (from UniProt P98161 24-852) (domain or fragment)”: the outward whole-cell currents of HEK293 cells expressing PC-1deltaNT/PC-2 F604P with the fragment in the bath solution in assay [3] worked out at 65.5 pA/pF.

In assay [1], “sPC-1_(pore) (sPC-1 with R4100G, R4107G and H4111G) (from UniProt P98161 24-4303) (receptor)” yielded a relative open probability at -100 mV, whole-cell patch clamp, HEK293 cells of 0.3; a whole-cell patch clamp current density at +180 mV, HEK293 cells co-expressing sPC-1pore and PC-2 F604P of 71.1 pA/pF.
